We go through 2 molecules from patent US20200341015A1.

Assay in all cases: cell-based or functional assay
For assay [1], the target named is recombinant human Rab6A (Jena Biosciences) (human) (UniProt P20340).
For assay [2] the target is unchanged. The source holds these as a separate data set.
The target of assay [3] is recombinant human Rab27A (Abnova Corporation) (human) (UniProt P51159).

A value given as a limit tells only on which side of the number the result lay.

UniProt P20340, sequence (P20340 whole entry): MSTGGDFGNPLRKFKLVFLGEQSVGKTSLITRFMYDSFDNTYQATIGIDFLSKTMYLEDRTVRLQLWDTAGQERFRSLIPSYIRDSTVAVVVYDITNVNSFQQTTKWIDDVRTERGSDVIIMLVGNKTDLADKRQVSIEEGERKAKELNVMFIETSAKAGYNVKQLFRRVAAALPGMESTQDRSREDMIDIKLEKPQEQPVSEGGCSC
UniProt P51159, sequence (P51159 whole entry): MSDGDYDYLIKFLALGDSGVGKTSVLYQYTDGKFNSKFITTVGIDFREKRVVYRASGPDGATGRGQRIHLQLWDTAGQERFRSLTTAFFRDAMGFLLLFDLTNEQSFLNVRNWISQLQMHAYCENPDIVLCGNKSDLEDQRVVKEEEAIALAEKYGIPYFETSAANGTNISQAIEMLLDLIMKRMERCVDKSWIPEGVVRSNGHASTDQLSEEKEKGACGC

Take “recombinant fish His-REP1 (Jena Biosciences)”: in assay [1], the band intensity of biotinylated Rab6a in positive controls, fold against the Rab27a data of FIG. 2 is 100 fold.

B1: human Rab escort protein 1 (REP1) (protein, UniProt P24386 1-653, looked up)
chain: MADTLPSEFDVIVIGTGLPESIIAAACSRSGRRVLHVDSRSYYGGNWASFSFSGLLSWLKEYQENSDIVSDSPVWQDQILENEEAIALSRKDKTIQHVEVFCYASQDLHEDVEEAGALQKNHALVTSANSTEAADSAFLPTEDESLSTMSCEMLTEQTPSSDPENALEVNGAEVTGEKENHCDDKTCVPSTSAEDMSENVPIAEDTTEQPKKNRITYSQIIKEGRRFNIDLVSKLLYSRGLLIDLLIKSNVSRYAEFKNITRILAFREGRVEQVPCSRADVFNSKQLTMVEKRMLMKFLTFCMEYEKYPDEYKGYEEITFYEYLKTQKLTPNLQYIVMHSIAMTSETASSTIDGLKATKNFLHCLGRYGNTPFLFPLYGQGELPQCFCRMCAVFGGIYCLRHSVQCLVVDKESRKCKAIIDQFGQRIISEHFLVEDSYFPENMCSRVQYRQISRAVLITDRSVLKTDSDQQISILTVPAEEPGTFAVRVIELCSSTMTCMKGTYLVHLTCTSSKTAREDLESVVQKLFVPYTEMEIENEQVEKPRILWALYFNMRDSSDISRSCYNDLPSNVYVCSGPDCGLGNDNAVKQAETLFQEICPNEDFCPPPPNPEDIILDGDSLQPEASESSAIPEANSETFKESTNLGNLEESSE
For B1, in assay [2], the band density of biotinylated substrate, fold against Rab27a in matching conditions is less than 2.5 fold; the band density values of biotinylated Rab substrate, condition 12 is 1.8; the band density values of biotinylated Rab substrate, condition 15 came to 0.75; the baseline biotin incorporation in untransduced samples (band density) came to 5.01 a.u. Besides, in assay [2], the best-fit top of the curve, biotin incorporation against MOI of rAAV2/2-REP1 (4-PL) is 92.8 a.u; the biotinylated substrate, fold against Rab27a (untransduced 293 lysate) was 2.5 fold; the strength of the WB signal of biotinylated Rab6a, fold against the Rab27a data of FIG. 2 (AAV-REP1 transduced cells) was 10 fold. In assay [3], the band density values of biotinylated Rab substrate, condition 4 was 0.8; the band density values of biotinylated Rab substrate, condition 7 was 0.3; the baseline biotin incorporation in untransduced samples (band density) is 0.577 a.u; the best-fit top of the curve, biotin incorporation against MOI of rAAV2/2-REP1 (4-PL) was 53.8 a.u.
